Measured values from patent US20030194391A1 (published 2003).

T1: mIL-13R1-Fc (catalogue number 491-IR-200, R+D Systems) (mouse, UniProt O09030 26-340)
T1 construct: Bought; also called mIL-13Rα1; mouse IL-13 receptor; not shown: Fc part; captured on plates with anti-human IgG
T1 sequence (looked up): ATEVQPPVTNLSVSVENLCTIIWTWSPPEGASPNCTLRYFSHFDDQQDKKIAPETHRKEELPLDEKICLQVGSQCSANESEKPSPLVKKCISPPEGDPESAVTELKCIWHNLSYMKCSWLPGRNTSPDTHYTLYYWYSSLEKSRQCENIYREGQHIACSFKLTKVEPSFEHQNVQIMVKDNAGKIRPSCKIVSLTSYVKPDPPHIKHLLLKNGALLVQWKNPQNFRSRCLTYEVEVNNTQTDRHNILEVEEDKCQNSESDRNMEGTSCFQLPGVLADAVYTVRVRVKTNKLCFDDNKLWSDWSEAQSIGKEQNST

T2: mIL-13R2-Fc (catalogue number 539-IR-100, R+D Systems) (mouse, UniProt O88786 22-334)
T2 construct: Bought; also called mIL-13Rα2; mouse IL-13 receptor; not shown: Fc part; captured on plates with anti-human IgG
T2 sequence (looked up): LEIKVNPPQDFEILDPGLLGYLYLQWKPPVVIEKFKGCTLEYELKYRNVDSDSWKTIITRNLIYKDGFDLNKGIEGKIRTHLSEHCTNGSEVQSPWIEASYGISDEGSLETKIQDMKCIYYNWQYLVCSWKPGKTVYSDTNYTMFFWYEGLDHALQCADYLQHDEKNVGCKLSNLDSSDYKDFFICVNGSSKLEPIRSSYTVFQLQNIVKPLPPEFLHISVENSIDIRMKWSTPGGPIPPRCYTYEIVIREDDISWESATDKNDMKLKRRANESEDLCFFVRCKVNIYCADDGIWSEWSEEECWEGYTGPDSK

T3: human type-2 IL-4 receptor expressed by the human lung fibroblast cell line A549 (human, UniProt P24394 26-825; P78552 22-427)
T3 sequence (looked up) 1: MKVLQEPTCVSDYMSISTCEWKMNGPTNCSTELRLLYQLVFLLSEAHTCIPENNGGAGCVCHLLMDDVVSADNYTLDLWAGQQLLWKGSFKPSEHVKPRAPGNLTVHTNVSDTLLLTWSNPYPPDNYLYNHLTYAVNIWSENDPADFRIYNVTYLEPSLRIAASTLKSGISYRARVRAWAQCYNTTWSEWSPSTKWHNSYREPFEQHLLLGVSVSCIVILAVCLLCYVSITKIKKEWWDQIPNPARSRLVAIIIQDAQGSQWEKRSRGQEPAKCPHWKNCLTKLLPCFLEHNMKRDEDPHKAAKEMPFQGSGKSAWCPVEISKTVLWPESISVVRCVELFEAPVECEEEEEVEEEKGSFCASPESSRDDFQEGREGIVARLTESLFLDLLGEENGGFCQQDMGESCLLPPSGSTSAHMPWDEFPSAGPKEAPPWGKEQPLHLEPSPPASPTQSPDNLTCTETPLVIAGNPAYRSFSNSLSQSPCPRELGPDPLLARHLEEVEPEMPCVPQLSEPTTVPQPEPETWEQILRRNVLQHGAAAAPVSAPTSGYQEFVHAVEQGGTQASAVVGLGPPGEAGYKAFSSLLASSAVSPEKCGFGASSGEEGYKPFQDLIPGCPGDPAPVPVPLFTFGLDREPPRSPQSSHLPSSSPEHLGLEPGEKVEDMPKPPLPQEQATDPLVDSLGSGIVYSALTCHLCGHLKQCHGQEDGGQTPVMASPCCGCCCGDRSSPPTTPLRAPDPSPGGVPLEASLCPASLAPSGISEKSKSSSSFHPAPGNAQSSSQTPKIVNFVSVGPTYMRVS
T3 sequence (looked up) 2: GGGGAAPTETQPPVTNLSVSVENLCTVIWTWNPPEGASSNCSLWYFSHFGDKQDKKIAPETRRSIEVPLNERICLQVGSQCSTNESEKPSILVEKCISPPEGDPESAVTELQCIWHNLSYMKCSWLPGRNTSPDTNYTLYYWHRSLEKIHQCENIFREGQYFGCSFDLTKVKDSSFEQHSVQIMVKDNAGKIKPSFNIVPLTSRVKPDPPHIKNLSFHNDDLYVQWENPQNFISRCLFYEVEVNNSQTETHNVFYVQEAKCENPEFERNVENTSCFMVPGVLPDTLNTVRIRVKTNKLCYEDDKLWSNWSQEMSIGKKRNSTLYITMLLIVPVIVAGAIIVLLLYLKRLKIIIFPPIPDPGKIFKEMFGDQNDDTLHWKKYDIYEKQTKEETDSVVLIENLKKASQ


What was measured:
[1] = molecular target: T1, mIL-13R1-Fc (catalogue number …); test: ELISA, receptor-Fc captured on anti-human IgG, detection with biotinylated anti-mIL-13
Method: (§1) ELISAs were set up to determine whether cIL-13 could bind to either of the known mouse IL-13 receptors (mIL-13R1 or mIL-13R2). 96-well Maxisorp plates were coated with anti-human IgG (catalogue number I-3382, Sigma Aldrich) in carbonate-bicarbonate buffer overnight at 4° C. Plates were then blocked with 3% BSA/TBST for 1 hour at RT, washed 3 times in TBST, and incubated with mIL-13R1-Fc or mIL-13R2-Fc (catalogue numbers 491-IR-200 and 539-IR-100 respectively, R+D Systems) for 1 hour at RT. After washing, plates were incubated with dilutions of mIL-13 or cIL-13 or GST-cIL-13 for 1 hour at RT, washed again and incubated with biotinylated anti-mIL-13 (catalogue number BAF413, R+D Systems). Following further washing and incubation with streptavidin conjugated horse-radish peroxidase, the plates were developed with 0-phenylenediamine dihydrochloride peroxidase substrate for 30 minutes.

[2] = molecular target: T2, mIL-13R2-Fc (catalogue number …); test: as above
Method: as §1

[3] = molecular target: T3, human type-2 IL-4 receptor expressed by …; test: cell-based or functional assay

Row | binding result [1] | binding result [2] | fold decrease in bioactivity against mIL-13 (STAT6 phosphorylation in A549 cells) [3] [fold] | Binder
1 | binds | binds | ~5 | chimaeric IL-13 (free cIL-13 generated from GST-cIL-13 by thrombin cleavage) (ligand, also called mouse chimaeric IL-13 vaccine construct) GPVPRSVSLPLTLRELIEELVNITQDQTPLCNGSMVWSVDLAAGGYCAALESLTNISNCNAIEKTQRMLGGLCNRKAPTTVSSLPDTKIEVAQFVKDLLSYTKQLFRHGPF
2 | binds | binds |  | GST-cIL-13 (genetic fusion protein of glutathione-S-transferase and chimaeric IL-13) (other, Expressed in E. coli BLR from pGEX4T3-cIL-13; also called GST-cIL-3; not shown: glutathione-S-transferase as encoded by vector pGEX4T3 (Amersham Pharmacia); short spacer which contains the recognition site for thrombin) GPVPRSVSLPLTLRELIEELVNITQDQTPLCNGSMVWSVDLAAGGYCAALESLTNISNCNAIEKTQRMLGGLCNRKAPTTVSSLPDTKIEVAQFVKDLLSYTKQLFRHGPF
